Experimental data reported in PMC6160459, “Identification of Peptide Mimotope Ligands for Natalizumab” (Scientific Reports, 2018).
Like-named read-outs stand apart in the source and are kept apart here.

Legend:
CD49d+ JeKo-1 cells = assay: CD49d+ cell based binding assay of heat exposed natalizumab (flow cytometry); conditions: 60 °C for 30 m, 1 h or 2 h; both GSH and non-GSH treated samples
Experimental: Natalizumab-spiked samples in serum were diluted 25-fold in 5% FBS/DPBS/0.05% NaN3. CD49d+ JeKo-1 cells were suspended in 5% FBS/DPBS/0.05% NaN3, and 25 µl of suspension (10^5 cells) were added to 25 µl of diluted sample and incubated for 20 m on ice. Washes, secondary incubation, collection, and analysis proceeded as in the CD49d+ Cell Based Peptide Competition Assay protocol.
(§1) Natalizumab was spiked into neat serum. The samples were split in half and 100 mM Glutathione reduced (GSH, Sigma-Aldrich, St. Louis MO) in H2O was added to one set to produce a final concentration of 3 mM GSH. Samples were then incubated overnight at 37 °C to induce arm exchange of IgG4 molecules. For ELISA assays, samples were subsequently diluted 250-fold in 2.5% BSA/TBST to produce a final serum concentration of 0.4%.
(§2) Samples containing GSH treated or non-GSH treated natalizumab in serum were heated at 60 °C for 30 m, 1 h, or 2 h. Control samples were held at 4 °C. For ELISA assays, samples were subsequently diluted 250-fold in 2.5% BSA/TBST to produce a final serum concentration of 0.4%.

[1] = Ntz-01 peptide ELISA of heat exposed natalizumab samples; assay type: binding; conditions: 60 °C for 30 m, 1 h or 2 h; particularly for the GSH treated samples; 0.4% serum
Experimental: Wells of a NeutrAvidin-coated 96-well plate or 8-well strips (Thermo Fisher) were coated with 100 µl of biotinylated peptide at 7.5 µg/ml in molecular grade H2O (GE Healthcare Life Sciences, Logan, UT) for 1 h. Wells were washed five times with TBST. Wells were then blocked with 200 µl of 5% normal goat serum diluted from 10% normal goat serum (Thermo Fisher) in TBS for 1 h. Wells were washed five times with TBST. Antibody was spiked into 2.5% BSA in TBST (2.5% BSA/TBST) or into pooled defibrinated human AB serum (serum; Gemini, Woodland CA) diluted in 2.5% BSA/TBST. The final dilution of serum was 0.4% unless otherwise noted. Wells were incubated with 100 µl of antibody-spiked samples for 1 h and then washed five times with TBST. Bound natalizumab was detected with mouse anti-human IgG4 horse radish peroxidase (anti-IgG4-HRP; Abcam, Cambridge, MA) diluted 1:2000-1:5000 in TBST. Wells were incubated with 100 µl of diluted anti-IgG4-HRP for 30 m and then washed nine times with TBST. Turbo TMB substrate (Thermo Fisher) was added to the wells and allowed to develop for 12–15 m shielded from light. The reaction was stopped with 1 M H2SO4 (Thermo Fisher). Optical density (OD) was read at 450 nm on a Multiskan FC plate reader (Thermo Fisher) and data were analyzed with GraphPad Prism v5 or v7 software (Graphpad Software Inc, La Jolla CA).
Natalizumab was spiked into neat serum. […]

[2] = test system: natalizumab neutralizing anti-Idiotype (anti-Id) Fab fragment; assay: Anti-Id ELISA of heat exposed natalizumab samples; assay type: binding; conditions: 60 °C for 30 m, 1 h or 2 h; GSH or non-GSH treated samples; 0.4% serum
Experimental: Wells of a Costar 96-well high binding plate were coated with 100 µl of natalizumab neutralizing anti-Idiotype (anti-Id) Fab fragment (Bio-Rad, Hercules CA) in phosphate-buffered saline (PBS; Corning Life Sciences) at 1 µg/ml overnight at 4 °C. The remining protocol proceeded as in peptide ELISA Protocol-1, with the following exceptions. 1) PBS/PBST was used in place of TBS/TBST (except for washes), 2) goat anti-human IgG HRP (Jackson Immunoresearch, West Grove PA) diluted 1:5000 was used as the secondary conjugate, and 3) TMB substrate was allowed to develop for 8–10 m.
as §1, §2

MS patients [3] = conditions: AFFIRM study; cited from earlier work
Text: Multiple sclerosis (MS) is a leading cause of neurologic disability that affects approximately 400,000 people in the US and 2.5 million worldwide. Natalizumab (marketed as Tysabri) is the top selling biologic drug indicated for MS and has been used to treat 177,800 patients worldwide as of November 2017[2]. […] Natalizumab is a humanized recombinant IgG4 mAb that targets the α4 chain of α4β1 integrin (also known as very late a ...

MS patients [4] = conditions: cited from earlier work
Text: The immunosuppressive activity of natalizumab has been associated with opportunistic infection by John Cunningham (JC) virus which may lead to progressive multifocal leukoencephalopathy (PML), a serious and often-fatal opportunistic brain infection. Approximately 56–58% of MS patients are positive for anti-JC virus antibodies, which puts them at increased risk for developing PML while on natalizumab[5]–[7]. The estimated incidence of PML in patients positive for anti-JC virus antibodies is 3.87 per 1,000 patients after at least 1 month of natalizumab treatment. It increases to 11.1 per 1,000 p ... || The standard dosing regimen for natalizumab is 300 mg by IV infusion every 4 weeks. […] It has been postulated that high serum concentrations may increase the risk of PML[10],[11]. […] Conversely, low drug concentrations have been associated with a lack of natalizumab efficacy. Multiple enzyme-linked immunosorbent assays (ELISAs) to detect levels of circulating natal ...

[5] = standard dosing, 300 mg by IV infusion every 4 weeks; cited from earlier work
Experimental: The standard dosing regimen for natalizumab is 300 mg by IV infusion every 4 weeks. […] It has been postulated that high serum concentrations may increase the risk of PML[10],[11]. […] Conversely, low drug concentrations have been associated with a lack of natalizumab efficacy. Multiple enzyme-linked immunosorbent assays (ELISAs) to detect levels of circulating natal ...

B1: natalizumab: humanized recombinant IgG4 mAb that targets the α4 chain of α4β1 integrin and a4β7 integrin (antibody, V domains shown)
VH: QVQLVQSGAEVKKPGASVKVSCKASGFNIKDTYIHWVRQAPGQRLEWMGRIDPANGYTKYDPKFQGRVTITADTSASTAYMELSSLRSEDTAVYYCAREGYYGNYGVYAMDYWGQGTLVTVSS
VL: DIQMTQSPSSLSASVGDRVTITCKTSQDINKYMAWYQQTPGKAPRLLIHYTSALQPGIPSRFSGSGSGRDYTFTISSLQPEDIATYYCLQYDNLWTFGQGTKVEIK
CD49d+ JeKo-1 cells
  functional cell binding with increased heat exposure: Decreased cell binding
[1]
  binding with increased heat exposure by Ntz-01 peptide ELISA: Decreased binding
[2]
  changes in binding with heat exposure by anti-Id ELISA: Changes in binding with heat exposure were not observed
MS patients [3]
  reduction of sustained physical disability relative to placebo: 42%
MS patients [4]; JC virus antibody positive patients with prior use of immunosuppressants and long-term use of natalizumab (24–48 months)
  estimated incidence of PML: 11.1 per 1,000 patients
MS patients [4]; extended interval dosing (infusion every 5–12 weeks instead of every 4 weeks)
  decrease of PML risk: 94%
MS patients [4]; patients positive for anti-JC virus antibodies, after at least 1 month of natalizumab treatment
  estimated incidence of PML: 3.87 per 1,000 patients
[5]
  variation of serum natalizumab concentrations: over 100 fold
